Test results as given in patent US20240002536A1 (GENERAL HOSPITAL, published 2024).
Primed or numbered codes have the meaning given here. Ends that are not written are not given here. * marks the point of attachment. Biotin = O=C1N[C@H]2[C@H](CS[C@H]2CCCCC(=O)*)N1; DBCO′ = dibenzocyclooctyne

Experiments:
[1] = biological target: (glycan chain)--(N-acetylmannosamine)-<azide-DBCO>-ARPDGG; assay: flow cytometry on Jurkat cells pre-incubated with AzNAM and treated with Db1 peptide; DMSO-control cells treated with Db1 printed as 'Geo. Mean = 1.4'
Az3db1 [2] = biological target: T1, Az3db1 (also: triazole at chain A 9 to a chain's N-terminus); assay: competition ELISA after Friguet, plot of Ao/(Ao-A) against 1/a0 with soluble Az3Db1 competitor; one single determination
T1 construct: Two synthetic peptides joined through the azide-DBCO click product; conversion to the click product was >=70%; also called click product of peptides Az3 and db1; original selection peptide
T1 peptide 1: Biotin-SGGGERTHK(azide)
T1 peptide 2: {DBCO′}-ARPDGG
Description: The binding affinity of IgG1-51 antibody towards Az3db1 was measured in an ELISA-based format by the method of Friguet et al. (1985), to yield the dissociation constant (KD) from a specific data plot. Because the total concentration of free competitor in these studies is large compared to the concentration of antibody (antibody concentration ˜0.1 nm), the simplification of the Scatchard-Klotz equation as derived by Friguet et al. was used, as: […]

Az3db1 [3] = biological target: T1, Az3db1; assay: ELISA-based competition in solution by the method of Friguet et al.; average of four independent determinations
db1 [4] = biological target: T2, db1; assay: competition ELISA: ratio of response slopes on immobilised Az3db1 without competitor / with soluble Db1
T2 construct: Unclicked precursor of Az3db1; also called DBCO-ARPDGG; db1 half-peptide
T2 peptide: {DBCO′}-ARPDGG
Description: (§1) We ranked the five scFv proteins 1S-5S in terms of their desired specificities and binding affinities. For this purpose, a series of ELISA-based competition assays were established, where scFvs were preincubated in solution with designated competitors before testing against immobilized target Az3db1 peptide. These included Az3db1 itself, and its constituent peptides Az3 and db1, in large (×100-fold) molar excess over the scFv proteins.
All ELISA assays used biotinylated target peptides for immobilized on streptavidin (SA) plates. For testing responses against Az3db1 (FIG. 3), a stock of the click product between peptides Az3 and db1 was made by incubating both together at 4.5 mM concentration in PBS pH 7.4 for 16 hr, conditions resulting in ≥70% conversion to the click product (FIG. 4). The resulting Az3db1 was positioned in an SA plate by incubating appropriate wells (after initial plate washing) with 100 μl of 1 pmol/μl of peptide. Dilutions of scFvs or IgG1-51 were made in PBS with 10 mg/ml bovine serum albumin (BSA) to levels typically beginning at 50 pg/μl, then in extended 2-fold dilution series from that point. […] After extensive washing, signals based on HRP activity from standard chromogenic substrates were read in a plate reader and collated.

Az3 [5] = biological target: T3, Az3; assay: competition ELISA: ratio of response slopes on immobilised Az3db1 without competitor / with soluble Az3
T3 construct: Unclicked precursor of Az3db1; also called azide-peptide Az3; single half-peptide
T3 peptide: Biotin-SGGGERTHK(azide)
Description: as §1
All ELISA assays used biotinylated target peptides for immobilized on streptavidin (SA) plates. For testing responses against Az3db1 (FIG. 3), a stock of the click product between peptides Az3 and db1 was made by incubating both together at 4.5 mM concentration in PBS pH 7.4 for 16 hr, conditions resulting in ≥70% conversion to the click product (FIG. 4). The resulting Az3db1 was positioned in an SA plate by incubating appropriate wells (after initial plate washing) with 100 μl of 1 pmol/μl of peptide. Dilutions of scFvs or IgG1-51 were made in PBS with 10 mg/ml bovine serum albumin (BSA) to levels typically beginning at 50 pg/μl, then in extended 2-fold dilution series from that point. Antibody or scFv dilutions were then incubated with Az3db1 target for 1 hr/room temperature, followed by treatment with appropriate secondary antibody-HRP conjugates (anti-human kappa for IgG1-51, anti-6H hexahistidine for all scFvs). After extensive washing, signals based on HRP activity from standard chromogenic substrates were read in a plate reader and collated.

db1 [6] = biological target: T2, db1; assay: phage ELISA, scFv displayed on M13
Az3 [7] = biological target: T3, Az3; assay: phage ELISA, scFv displayed on M13

Binder	binding result (Az3 [5])	binding result (db1 [6])	binding result (Az3 [7])	other results
IgG1-51 (antibody, V domains shown, VH and VL of scFv-51 fused in frame to human Cgamma1 and Ckappa and co-expressed in Hek293 cells; also called Ab51; antibody 51; not shown: Human Gamma1 C-region, Uniprot code P01857.1; Human Kappa C-region, Uniprot code P01834.2) VH: QMQLVQSGSELKKPGASVKVSCKASGYTFTSYAMNWVRQAPGQGLEWMGWINTNTGNPTYAQGFTGRFVFSLDTSVSTAYLQISSLKAEDTAVYYCARFDRPRGAFDIWGQGTLVTVSS VL: QAVLTQPSSLSASPGASASLTCTLRSGINVGTYRIYWYQQKPGSPPQYLLRYKSDSDKQQGSGVPSRFSGSKDASANAGILLISGLQSEDEADYYCMIWHSSAWVFGGGTKLTVLG				geometric mean fluorescence (Geo. Mean) [1]: 226; Kd (Az3db1 [2]): 0.175 µM; Kd (Az3db1 [3]): 0.16 µM
scFv-18 (scFv, VH-(GGGGS)3 linker-VL from the human phage library HuScL-6; Protein ELISAs used an E. coli hexahistidine (6H) fusion; also called scFv-1S; 1S) scFv: QVQLVESGSELKKPGASVKVSCKASGYTFTNYAMNWVRQAPGQGLEWLGWINTNTGNPTYAQGFTGRFVFSLDTSVSTAYLQISSLKAEDTAVYYCARGSLGGTFDYWGQGTPVTVSSGGGGSGGGGSGGGGSQAVLTQPSSLSASPGASASLTCTLRSGINVGTYRIYWYQQKPGSPPQYLLRYKSDSDKHQDSGVPSRFSGSTDASANAGILLISGLQSEDEADYYCMIWHSRAWVFGGGTRGEIKR	no binding			binding result (db1 [4]): no binding
scFv-36 (scFv, VH-(GGGGS)3 linker-VL from the human phage library HuScL-6; Protein ELISAs used an E. coli hexahistidine (6H) fusion; also called scFv-2S; 2S) scFv: QVQLVQSGAEVKKPGASVKVSCKASGYTFTSYGISWVRQAPGQGLEWMGWINTNTGNPTYAQGFTGRSVFSLDTSVSTAYLQISSLKAEDSAVYYCARHSDDGAFDIWGKGTMVTVSSGGGGSGGGGSGGGGSQAVLTQPSSLSASPGASASLTCTLRSGINVGTYRIYWYQQKPGSPPQYLLRYKSDSDKQQGSGVPSRFSGSKDASANAGTLLISGLQSEDEADYYCAIWHSSTWVFGGGTKVTVLG	no binding			
scFv-44 (scFv, VH-(GGGGS)3 linker-VL from the human phage library HuScL-6; Protein ELISAs used an E. coli hexahistidine (6H) fusion; also called scFv-3S; 3S) scFv: QVQLVQSGAEVKKPGSSVKVSCKASGYTFADYAINWVRQAPGQGLEWMGWINTNTGNPTYAQGFTGRFVFSLDTSVSTAYLQISSLEAEDTAVYYCARHFSGYSLDAVDIWGQGTLVTVSSGGGGSGGGGSGGGGSQAVLTQPSSLSASPGTSASLTCTLRSDINVGAYRIYWYKHKAGSPPQFLLRFKSDSDNYRGSGVPGRFSGSKDASANAGILLISGLQSEDEADYYCAIWHSSTWVFGGGTKLTVLG	no binding			binding result (db1 [4]): no binding
scFv-64 (scFv, VH-(GGGGS)3 linker-VL from the human phage library HuScL-6; It was also expressed as an E. coli hexahistidine (6H) fusion) scFv: EVQLVESGSELKKPGASVKVSCKASGYTFTSYAINWVRQAPGQGLEWMGWINTNTGNPTYAQGFTGRFVFSLDTSVSTAYLQISSLKAEDTAVYYCARGYYDSSGYNFDYWGKGTLVTVSSGGGGSGGGGSGGGGSQAVLTQPSSLSASPGASASLTCTLRSGINVGTYRIYWYQQKPGSPPQYLLRYKSDSDKQQGSGVPSRFSGSKDASANAGILLISGLQSEDEADYYCMIWHSSAWVFGGGTKLTVLG		no binding	no binding	
scFv-69 (scFv, VH-(GGGGS)3 linker-VL from the human phage library HuScL-6; It was also expressed as an E. coli hexahistidine (6H) fusion) scFv: QVQLVQSGSELKKPGASVKVSCKASGYTFTSYAMNWVRQAPGQGLEWMGWINTNTGNPTYAQGFTGRFVFSLDTSVSTAYLQISSLKAEDTAVYYCARGAAGVFDIWGKGTTVTVSSGGGGSGGGGSGGGGSQAVLTQPSSLSASPGASASLTCTLRSGINVGTYNIYWYQQKPGSPPQFLLRYKSDSDKQQVSGVPSRFSGSKDGSANAGILLISGLQSEDEADYYCMIWHSSAWVFGGGTKLTVLG		no binding	no binding	
scFv-72 (scFv, VH-(GGGGS)3 linker-VL from the human phage library HuScL-6; expression as a protein failed) scFv: EVQLVESGAEVKKPGASVKVSCKASGYTFTSYAMNWVRQAPGQGLEWMGWINTNTGNPTYAQGFTGRFVFSLDTSVSTAYLQISSLKAEDTAVYYCARQRDYRMDVWGQGTMVTVSSGGGGSGGGGSGGGGSQAVLTQPSSLSASPGASASLTCTLRSGINVGTYRIYWYQQKPGSPPQYLLRYKSDSDKQQASGVPSRFSGSKDASANAGILLISGLQSEDEADYYCLIWHNNAWVFGGGTKVTVLG		no binding	no binding	
scFv-83 (scFv, VH-(GGGGS)3 linker-VL from the human phage library HuScL-6; expression as a protein failed) scFv: QVQLVQSGAEVKKPGASVKVSCKASGYSFTSYAMNWVRQAPGQGLEWMGWINTNTGNPMYAQGFTGRFVFSLDTSVSTAYLEVSSLKAEDTAVYFCARYNAMDVWGQGTTVTVSSGGGGSGGGGSGGGGSQAVLTQPSSLSASPGASASLTCTLRSGINVGTYRIYWYQQKPGSPPQYLLRYKSDSDKQQGSGVPSRFSGSKDASANAGILLISGLQSEDEADYYCMIWHSSAWVFGGGTKVTVLG		no binding	no binding	
